{
  "source": "patent US20260027179A1",
  "about": "“ANTI-SYNUCLEINOPATHY PEPTIDE AND METHODS TO TREAT NEURODEGENERATIVE DISEASES” (University of British Columbia, priority 2021, published 2026)",
  "key": {"[1]": {"molecular_target": "T1, purified recombinant human α-synuclein (Homo sapiens, UniProt P37840)", "T1 construct": "His (histidine tag) (N); purchased Sigma S7820-500UG", "assay": "Biacore peptide-protein binding assay", "details": "0.20-12.50 μM peptide, report point 20 seconds into dissociation", "method": "Biacore experiments were performed using a Biacore 3000 instrument (GE Healthcare Biosciences, Upsala, Sweden) and HBS running buffer, pH 7.4, containing 10 mM HEPES, 150 mM NaCl, 3 mM EDTA, and 0.005% surfactant P20. A research-grade CM5 sensor chip was activated with a mixture containing equal molar amounts of EDC (N-ethyl-N′-(dimethylaminopropyl) carbodiide and NHS (N-hydroxysuccinimide). Purified recombinant human α-synuclein (N-terminal histidine tagged, Sigma, S7820-500UG), diluted in sodium acetate pH 3.1, was then injected and covalently coupled to a flow cell of the sensor chip surface by amide bonding. Residual unreacted sites were blocked with ethanolamine. A reference surface, to account for non-specific binding, was similarly generated by activating and blocking an adjacent flow cell. Approximately 1500 resonance units (RU), equivalent to a surface concentration of 1500 pg/mm^2 of α-synuclein, was immobilized.\nTo ascertain the binding interaction between α-synuclein knockdown peptides and α-synuclein, synthetic Tat-βsyn-degron peptide or control tat peptide was serially diluted and sequentially injected over the active surface containing immobilized α-synuclein and the reference surface for 3 minutes at a flow rate of 30 μl/minute. The peptides were then allowed to dissociate for 3 minutes during which time HBS running buffer was injected. The resultant sensorgrams were double-referenced by subtracting out the binding on the reference surface and the response from the HBS blank buffer control. Binding response report points were collected 20 seconds into the dissociation phase of the interaction at time 200 seconds, which represents a stable binding response and excludes bulk refractive index changes and nonspecific binding."}, "HSP90": {"test_system": "HSP90", "assay": "HSP90 level in cortical cultures, immunoblot", "type": "cell-based, rat", "details": "50 μM, 24 hrs", "method": "Primary rat neuron cultures were prepared from embryos of pregnant Sprague-Dawley rats (E18). The experimental protocol was approved by the University of British Columbia Animal Care Committee. Briefly, the cortical tissue or ventral midbrain tissue was isolated into ice cold HBSS (Invitrogen, 14170-112) and then digested with 0.25% trypsin-EDTA at 37° C. for 30 min. After washing with warm DMEM (supplemented with 10% FBS) three times, neurons were suspended in neuron culture media and dissociated by trituration using varying sizes of pipettes. Neurons were then centrifuged, and the pellet was re-suspended in culture media, washed twice with culture media, and plated on the poly-D-lysine-coated plates. Neuron culture was maintained in the 37° C. incubator with 95% O2 and 5% CO2. The morning after culturing, 2/3 of the neuron culture media was replaced with fresh neuron culture media. Media was then replaced every 3-4 days. […]\nBrain tissues or cultured cells were lysed on ice in the lysis buffer and then the solution was centrifuged at 14,000 rpm for 10 min at 4° C. Next, the supernatant was collected and protein concentrations were determined using a BCA protein assay kit (Thermo Scientific, 23227). […] The band density of each protein was quantified by the Bio-Rad Quantity One software and the relative optical density was analyzed relative to the loading control β-actin on the same membrane."}},
  "data": [
    {"sequence": "YGRKKRRQRRRRTKSGVYLVGRRRG (The sequence is synthesized (YGRKKRRQRRRRTKSGVYLVGRRRG)) [Tat-βsyn-degron]", "values": [
      {"measurement": "binding response to immobilized α-synuclein", "setting": "[1]", "result": "robust and similar binding"},
      {"measurement": "expression level of HSP90", "setting": "HSP90", "result": "did not affect the expression levels"}
    ]}
  ]
}
